The supplement of paper PMC9170038

How the values were obtained:
MS2 coat protein [1] = assay: apparent KD of MS2 coat protein, switch OFF state (with FMN for OFF switches, without FMN for ON switches); designed switch direction (-1 OFF switch, 1 ON switch): -1; higher = weaker reporter binding; conditions: FMN input: 0 or 200 uM; Eterna round: R93 (includes R88 designs)
Outline: (§1)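 Apparent KD was obtained for each design as the median of normalised binding-curve fits over its clusters. RNA switches transcribed on-chip from Illumina sequencing clusters were titrated with SNAP-549-labelled MS2 coat protein (twofold steps, 0.7 or 1.5 nM to 3 µM) in 100 mM Tris-HCl pH 7.5, 80 mM KCl, 4 mM MgCl2, without or with constant ligand.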

MS2 coat protein [2] = assay: apparent KD of MS2 coat protein, switch ON state; designed switch direction (-1 OFF switch, 1 ON switch): -1; higher = weaker reporter binding; conditions: FMN input: 0 or 200 uM; Eterna round: R93 (includes R88 designs)
Outline: as §1

Sequence | apparent KD of MS2 coat protein (MS2 coat protein [1]) | apparent KD of MS2 coat protein (MS2 coat protein [2])
AAAAAAAGAGGAUAUACAUGAGAAAAAAAAAUGUAAAAAAAACAUGAGGAUCACCCAUGUAGAAGGCUUAAAAA [Ecxl-I] | 48.3 nM | 33.5 nM
AAAAAAAGAGGAUAUACGAACAUGUCGAAAGACGUGAAGGGACAUGAGGAUCACCCAUGUAGAAGGUUUAAAAA [Mat - Exclusion 2 - JL mod - D83] | 14.6 nM | 28.5 nM
AAAAAACAUGAGGAUCACCCAUGUAAGGAUAUCUAAAAUAAAAGAAAAAUAAAGAAAAGGAGAAGGUACAUGAA [JL wbt mod 21] | 50.6 nM | 28.6 nM
AAAAAACAUGAGGAUCACCCAUGUAAGGAUAUGCCUAAAAAAAAAAAAAAAAAAAAUGGCAGAAGGUGCAAAAA [excalibur15] | 35.4 nM | 41.6 nM
AAAAAACAUGAGGAUCACCCAUGUAAGGAUAUGUAAAAUAAAAGAAAAAUAAAGAAAAGCAGAAGGUACAAGAA [JL wbt mod 18] | 23.4 nM | 37.1 nM
AAAAAACAUGAGGAUCACCCAUGUCAGGAUAUCAUAAAAAAAAAAAAAAAAAAAAAAGUGAGAAGGGACAAAAA [exclusion1-cac1] | 32.7 nM | 42.9 nM
AAAAAACAUGAGGAUCACCCAUGUCAGGAUAUCCGGUUCUUGAAAAUCAAGAGGCGUUGGAGAAGGGACAUUCC [Chica Displaced 14 - Jieux - Exclusion 1] | 74.4 nM | 27.9 nM
AAAAAACAUGAGGAUCACCCAUGUGAGGAUAUCGAAAAGAAAAGAAAAGAAAGAAGAACGAGAAGGCACAAGAA [Sneferu] | 48 nM | 36.6 nM
AAAAAACAUGAGGAUCACCCAUGUGAGGAUAUCGAAAAGUCAAAGAAAAAGACGAAAACGAGAAGGCGCAAAAA [Inspired by Nando] | 26 nM | 23.7 nM
AAAAAACAUGAGGAUCACCCAUGUGAGGAUAUCGGAAACAAAAAAAACAAAAACAAAACGAGAAGGCACAAAAA [Amethyst 32] | 26.6 nM | 72.4 nM
AAAAAACAUGAGGAUCACCCAUGUGAGGAUAUGCAAAAAUAAAAUAAAAUAAUAAAAAGCAGAAGGCACAAAAA [Amethyst 76] | 26.4 nM | 20.5 nM
AAAAAACAUGAGGAUCACCCAUGUGAGGAUAUGCGAAAAUAAAAUAAAAUAAUAAAAAGCAGAAGGCACACCAA [58%, Sh'dynasty, 2] | 29 nM | 22 nM
AAAAAACAUGAGGAUCACCCAUGUGAGGAUAUGGAAAAGAAAAGAAAAGAAAGAAGAACCAGAAGGCACAAGAA [Khafre] | 37.9 nM | 30 nM
AAAAAACAUGAGGAUCACCCAUGUGAGGAUAUGUAAAAUAAAAUAAAAAUAAAAAAAAGCAGAAGGUAUAUGAA [Amethyst 66] | 40.6 nM | 31.4 nM
AAAAAACAUGAGGAUCACCCAUGUUAGGAUAUGCUAUGGAAAAUAAAAAAUAAACAUAGCAGAAGGAACAAAAA [Mat - Exclusion 1 - Eli mod - D30] | 32.6 nM | 21.2 nM
AAAAAAGCAGGAUAUACGUACAUGUCAAAAGACGUGAAGGGACAUGAGGAUCACCCAUGUAGAAGGGUUAAGAA [JL Stem Breaker 17] | 49.4 nM | 220 nM
AAAAAAGGAGGAUAUACGUACAUGUCAAAAGACGUGAAGGGACAUGAGGAUCACCCAUGUAGAAGGUUUAAAAA [JL Wide Open 31] | 18.3 nM | 49.1 nM
AAAAACAGAGGAUAUACAAAAUGAUGACGAAAGUCAUCAAAACAUGAGGAUCACCCAUGUAGAAGGCUGAAAAA [Mod of Meechl] | 20.2 nM | 24.2 nM
AAAAACAGAGGAUAUACAUGAGGAUCACCCAUGUAAAAAUGUAGAAGGCUGAAAAAAAAAAGAAGGAAAAAAAA [Meechl Ex3 R2 m0] | 23.2 nM | 21.6 nM
AAAAACUCAGGAUAUACAUGAGGAUCACCCAUGUAAAAAAAAAAAAAGGGAAAAAAAAGUAGAAGGGAGAAAAA [Semenre] | 37.2 nM | 25.5 nM
AAAAAGAGAGGAUAUGCAGGAGAAAAAAAAAAAAAAAAAAAACAUGAGGAUCACCCAUGUAGAAGGCUCAAAAA [Ecls2-II] | 15.7 nM | 28.4 nM
AAAAAGAGAGGAUAUGCAGGAGGUAAGGUCAAAAAAAAAAAACAUGAGGAUCACCCAUGUAGAAGGUUUAAAAA [Ecls2-VI] | 23.5 nM | 29.3 nM
AAAAAGCGAGGAUAUACAAAAGAGCGAAAGCUCAAAAGGAAACAUGAGGAUCACCCAUGUAGAAGGCGCAAGAA [John Whine] | 20.1 nM | 23.1 nM

Sequence | apparent KD of MS2 coat protein (MS2 coat protein [1]) | apparent KD of MS2 coat protein (MS2 coat protein [2])
AAAAAGCUAGGAUAUACGAAAAAAAAGGGUAAAAAAUAAAAACAUGAGGAUCACCCAUGUAGAAGGAGCAAAAA [Mat - Exclusion 2 - Tesla mod - D36] | 77.9 nM | 43.2 nM
AAAAAGGCAGGAUAUACAAAACAGGGAAACCUGAAAAGGAAACAUGAGGAUCACCCAUGUAGAAGGGCCAAGAA [Clint Eastwood] | 30.9 nM | 31 nM
AAAAAGGCAGGAUAUACAUGAGGAUCACCCAUGUUUUAAAAAAAAAAAAAAAAAAAAAGUAGAAGGGCCAAAAA [Ex 3.1] | 39.7 nM | 52.3 nM
AAAAAGGCAGGAUAUACGAAGCUAAGACAAAUAAGCAAGGGACAUGAGGAUCACCCAUGUAGAAGGGCCAAAAA [Exclusion 2-01... 60% 3] | 132 nM | 41.1 nM
AAAAAGGGAGGAUAUACAUGAGGAUCACCCAUGUAAAAAAAAAAAAAGGGAAAAAAAAGUAGAAGGCCCAAAAA [Apepi] | 52.6 nM | 50.1 nM
AAAAAGGGAGGAUAUACAUGAGGAUCACCCAUGUGUCAGACGAAAAAGAGUCUGAAGUGUAGAAGGCCCAAAAA [65%, Moding Exclusion3-cac2, 1] | 40.7 nM | 25.9 nM
AAAAAGGUAGGAUAUACAUGAGGAUCACCCAUGUAAAAAAAAACAAGAGAAAAAAAAUGUAGAAGGGCCAAAAA [Ex3 Malc#4] | 16.9 nM | 14.3 nM
AAAAAGGUAGGAUAUACAUGAGGAUCACCCAUGUAAAAAAAUGGAGAAAAAAACAAUUGUAGAAGGGCCAAAAA [Ex3 Malc#7] | 61.6 nM | 38.8 nM
AAAAAGGUAGGAUAUACGAAAAAAAAGGGUAAAAAAUAAAAACAUGAGGAUCACCCAUGUAGAAGGACCAAAAA [Mat - Exclusion 2 - Tesla mod - D41] | 36.7 nM | 30.5 nM
AAAAAGGUAGGAUAUACGAAAAAAAAGGGUAAAAUAAAUAAACAUGAGGAUCACCCAUGUAGAAGGACCAAAAA [Mat - Exclusion 2 - Tesla mod - D38] | 161 nM | 23.5 nM
AAAAAGGUAGGAUAUACGAGGAGAAAUAAUAAAUAAAUAAAACAUGAGGAUCACCCAUGUAGAAGGACCAAAAA [Ex 2 sub 2] | 26.9 nM | 27.6 nM
AAAAAGUCAGGAUAUACAGAAAAAAAAACGAAAAAAAAUCUGUAGAAGGGACAUGAGGAUCACCCAUGUAAAAA [Ex 4 May 12] | 33.6 nM | 47.6 nM
AAAAAGUCAGGAUAUACAUGAGGAUCACCCAUGUGAAAGAACGAAAAACGAAAAGCAAGUAGAAGGGACAAAAA [Ruby 78] | 14 nM | 13.1 nM
AAAAAGUCAGGAUAUAUGCGAAAAAUAAAAAAAAUAAAAACAUAGAAGGGACAUGAGGAUCACCCAUGUUAAAA [Ex 4 May 17] | 29.3 nM | 44.7 nM
AAAAAGUCAGGAUAUGUACAAAAUAAAAUAAAAAUAAAAGUACAGAAGGGACAUGAGGAUCACCCAUGUAAAAA [Ex 4 May 11] | 36.6 nM | 38.6 nM
AAAAAGUGAGGAUAUACAUGAGAAAAAAAAAUGUAAAAAAAACAUGAGGAUCACCCAUGUAGAAGGCACAAAAA [Ecxl-II] | 83.5 nM | 40.8 nM
AAAAAGUGAGGAUAUACAUGAGGAUCACCCAUGUAAUAAAAAAAAAGGGUGGAAGAAAGUAGAAGGCACCAAAA [Ex 3 May 48] | 142 nM | 48.2 nM
AAAAAGUGAGGAUAUACAUGAGGAUCACCCAUGUGUAUAAAAAAUUACACGAAAGAAUGUAGAAGGCACUAAAA [JL Mayanne Mod 3] | 42.8 nM | 18.2 nM
AAAAAGUGAGGAUAUACAUGAGGAUCACCCAUGUUAAAAAAAAAAAAAUAUAAAAAUAGUAGAAGGCACAAAAA [Default title] | 41.3 nM | 48.8 nM
AAAAAGUGAGGAUAUACAUGAGGAUCACCCAUGUUAAGGUAAUAUAUAUAUAUAUAUAGUAGAAGGCACAAAAA [Default title] | 31.5 nM | 32.4 nM
AAAAAGUGAGGAUAUACGGUGUGGAGUAGACACAACCAGGCGUAGAAGGCACAUGAGGAUCACCCAUGUCCAAA [EX4 Malc#15] | 29.1 nM | 25.9 nM
AAAAAGUGAGGAUAUGGUAAAAAAAAAAAAAAAAAGCACCUCCAGAAGGCACAUGAGGAUCACCCAUGUCGAAA [Jolly's Folly 6 - Jieux - Exclusion 4] | 31.3 nM | 24.4 nM
AAAAAGUGAGGAUAUGUCAAAAGUCACAAAAGUGACAAAAGACAGAAGGCACAUGAGGAUCACCCAUGUGAGGG [Mod of Eli - Late G + early G segment 4] | 103 nM | 110 nM
